# From the RNAGym collection of RNA variant scans (doi:10.7554/elife.80360)
# B1: Hairpin Ribozyme (parent)
# chain: GUCCUCUUUCACGUGCGCGUGAAAGAGAGAAGUGAACCAGAGAAACACACGUUGUGGUAUAUUACCUGGUA
# Variants of: B1
# Test: self-cleavage, relative activity (ratio to wild type); higher = more cleavage; co-transcriptional
row,Variant,self-cleavage
1,G32C A61G,0.136
2,A30U A64U,0.13
3,G32C A35C,0
4,A31C A49G,0.0512
5,A31U U70A,0.0877
6,G32A A43G,0.141
7,G32A A43C,0.0569
8,G32U G40A,0.122
9,G32C A64U,0.159
10,G32C A64G,0.0936
11,G32C A64C,0.183
12,G32A C46G,0.103
13,G32A C46U,0.148
14,A30U A36U,0.0371
15,U33A U58G,0.135
16,U33A U58A,0.0766
17,A31U U62C,0.147
18,A31U U62G,0
19,G32A A39U,0.108
20,U33C A43U,0.231
21,U33C A43C,0
22,A31C U63A,0.162
23,G32U G56C,0.152
24,A31C A39C,0.173

row,Variant,self-cleavage
1,G32C C37G,0.15
2,A31G U62A,0.127
3,G32A A64C,0.14
4,A31U U55G,0.089
5,A31G G32C,0.0299
6,A31G G32A,0.0999
7,A31C G56C,0.115
8,A31C G56U,0.182
9,G32U A39U,0.125
10,A31C G69A,0.0915
11,A31G U67C,0.118
12,G32C U55C,0.0178
13,A30U A31C,0.288
14,A31C U70G,0.0868
15,U33A C46A,0.122
16,U33A C46G,0.176
17,A31G U52A,0.764
18,A31G U52G,0.4
19,A31G U52C,0.508
20,A31C C50G,0.0635
21,G32A U63A,0.132
22,G32C C46U,0.109
23,G32U A43C,0.0806
24,G32U A43G,0.0636

row,Variant,self-cleavage
1,G32C G34C,0.101
2,U33A A59G,0.106
3,A31U A64G,0.0407
4,U33C A36G,0.0993
5,G32C A36U,0.136
6,G32C A36G,0.0754
7,A31G G34A,1.12
8,A31G C50U,0.266
9,A31G C50G,0.176
10,G32A A47C,0.143
11,A31G C48A,0.164
12,U33A A61U,0.167
13,U33A A61G,0.0674
14,G32A G69C,0.163
15,G32C U70A,0.0808
16,A31C C46A,0.0889
17,A31C C46U,0.187
18,A31C C46G,0.0917
19,U33A U63A,0.0514
20,U33A U63G,0.27
21,G32C G69A,0.149
22,G32U A44G,0.0996
23,G32U C50A,0.0903
24,A30U A49C,0.111

row,Variant,self-cleavage
1,A31C A47G,0.108
2,G32C G68C,0.112
3,G32C G68U,0.135
4,G32U G54A,0.105
5,G32U G54U,0.0884
6,A31G U33C,0.0729
7,A31G U33A,0.165
8,A31C A36C,0.123
9,A31C A36G,0.124
10,U33A A43G,0.169
11,A31U A59C,0.0285
12,A31U A59U,0.201
13,G32C A45C,0.145
14,G32C A45G,0.0948
15,A31G A49U,0.11
16,A31G A45C,0.241
17,A31G A45U,0.236
18,G32A A49C,0.0198
19,G32A A49U,0.0556
20,G32A A61U,0.154
21,A31U A36C,0.197
22,A31U A36G,0.151
23,G32U U63G,0.113
24,G32U U63C,0.268

row,Variant,self-cleavage
1,U33A A36U,0.0862
2,A31U G69A,0.182
3,A30U G68C,0.118
4,A30U G68U,0.207
5,A30U G68A,0.0299
6,A30U A71C,0.299
7,A30U A71U,0.101
8,A31G G57U,0.23
9,G32U U33G,0.0653
10,G32A C38G,0.1
11,A30U A47C,0.0639
12,A31C U55G,0.1
13,G32U U53A,0.126
14,A31C G51A,0.179
15,G32A A44G,0.143
16,G32A A44U,0.152
17,G32A A44C,0.0922
18,G32C C50U,0.0935
19,A31G A64G,0.284
20,A31G A64C,0.0777
21,G32C U58C,0.0937
22,A31C G54A,0.152
23,G32C A39C,0.135
24,A31U A35U,0.162

row,Variant,self-cleavage
1,A31U A35C,0.185
2,A31U G34U,0.167
3,G32U G57C,0.129
4,G32U G57A,0.139
5,A30U A61C,0.069
6,A30U A61U,0.0778
7,G32A U33C,0.119
8,G32U C37U,0.161
9,G32U C37A,0.0811
10,A31C G40C,0.0931
11,A31C U33G,0.0823
12,G32A G57C,0.117
13,A30U U53C,0.041
14,A31U U53A,0.026
15,A31U U53G,0.122
16,A30U C65G,0.228
17,A30U C65U,0.0165
18,U33C A35U,0.162
19,A31U G68A,0.157
20,A31U U58C,0
21,A31U A49G,0.121
22,A31U A49C,0.139
23,G32U C66G,0.19
24,U33A G34C,0.777

row,Variant,self-cleavage
1,U33A G34A,0.0987
2,U33A C65U,0.238
3,A30U G42A,0.11
4,A30U U63A,0.13
5,U33A G56U,0.156
6,U33A G56A,0.239
7,A31U C66A,0.3
8,A31U C66U,0.0749
9,G32A G34A,0.07
10,A31C A64U,0.11
11,A31U G54C,0.119
12,A30U U33G,0.138
13,U33C,0.161
14,U33A,0.147
15,G32A A59U,0.167
16,U33A C48G,0.123
17,U33A C48U,0.0718
18,U33A U62C,0.184
19,A31U G40A,0.117
20,U33A A35C,0.0785
21,G32A C48A,0.128
22,U33A U67C,0.104
23,G32A C65A,0.0853
24,G32A C65G,0.102

row,Variant,self-cleavage
1,A30U U58A,0.115
2,A30U A41G,0.106
3,A31G G51U,0.599
4,G32U A45C,0.153
5,A31C C65G,0.116
6,A31G A35G,0.662
7,A31G A35U,0.378
8,A31C C66U,0.225
9,G32A U60A,0.191
10,A31U U63A,0.0279
11,A31U U63G,0.0484
12,U33A A64G,0.164
13,G32U C48U,0.15
14,G32U C48A,0.0918
15,A30U A39C,0.111
16,A30U A39U,0.0553
17,A30U A39G,0.0918
18,A31C U58A,0.171
19,A31C U58G,0.131
20,A31C U58C,0.247
21,G32C C65G,0.0614
22,G32C G57A,0.0977
23,G32C G57U,0.072
24,A31U A39G,0.0984

row,Variant,self-cleavage
1,G32U G34U,0.126
2,A31U C38G,0
3,A31C U60C,0.188
4,A31G U60C,0.836
5,G32C U67C,0.105
6,A31G A61C,0.16
7,A31G A61U,0.159
8,A30G U70A,0.0747
9,A30G U70G,0.262
10,A30G U70C,0.0846
11,G32A U70C,0.0825
12,A31U A47G,0.101
13,G32U U58C,0.116
14,G32C U33G,0.12
15,G32C U33C,0.0618
16,A31C A61C,0.194
17,A31C A61U,0.0706
18,A31U C48A,0.166
19,U33A U55A,0.0922
20,U33A C50U,0.105
21,U33A C50A,0.18
22,U33A G51A,0.177
23,U33A G51U,0.129
24,G32U A49U,0.0712

row,Variant,self-cleavage
1,A30U G32C,0.132
2,G32C C48U,0.169
3,A30U C48G,0.118
4,A30U C48A,0.209
5,U33A C37A,0.112
6,A31U A41C,0.154
7,A31U A45U,0.131
8,A31U A45G,0.0267
9,A30U C50G,0.157
10,U33C A39G,0.134
11,A30U U60A,0.346
12,A31G A44G,0.208
13,A31G A44U,0.205
14,G32U G69A,0.115
15,A31G C37G,0.162
16,A31G C37A,0.158
17,A31G C38U,0.272
18,A31G C38G,0.0773
19,A31G G40A,0.179
20,A31G G40U,0.168
21,A31G G40C,0.247
22,A31U C37G,0.237
23,A30G U62G,0.112
24,A30U A43G,0.108

row,Variant,self-cleavage
1,U33A G40C,0.0171
2,G32C U52G,0.125
3,A31C A59U,0.108
4,U33A U70A,0.0761
5,G32U U70C,0.138
6,G32U U70G,0.108
7,U33A U52C,0.122
8,U33A U52G,0.111
9,A31C G57U,0.0476
10,A31C G57C,0.189
11,A31C G57A,0.107
12,G32C U53G,0.0828
13,G32C U53A,0.185
14,G32U C38A,0.0741
15,U33A A71G,0.178
16,G32U G68C,0.0784
17,A30U G40C,0.13
18,A30U A59U,0.0496
19,A30U A59G,0.187
20,A30U G51A,0.104
21,A31U U60A,0.0868
22,G32C U62C,0.2
23,A31C U67G,0.0719
24,A31U G51C,0.15

row,Variant,self-cleavage
1,A31U G42C,0.0816
2,A31G U70A,0.509
3,U33A A44U,0.141
4,A31U G57C,0.155
5,A31U G57A,0.169
6,A31U G57U,0.216
7,A31G U55A,0.105
8,A31G C65U,0.252
9,G32A G40C,0.156
10,G32U A59C,0.0899
11,G32U A59U,0.0402
12,A31G A36U,0.306
13,A31G A36C,0.363
14,G32C G54U,0.0594
15,G32C G54A,0.0613
16,U33C A41U,0.159
17,G32C C66A,0.0957
18,G32U A61G,0.0951
19,A30U G69A,0.146
20,A30U G69U,0.149
21,U33A A49U,0.194
22,G32U U60A,0.17
23,G32U U60C,0.0374
24,A31C G32C,0.228

row,Variant,self-cleavage
1,A30G U60C,0.252
2,A30U U67C,0.0825
3,A30U U67G,0.176
4,A30U U67A,0.0771
5,G32C G56C,0.149
6,G32C G56A,0.13
7,U33A C38U,0.0932
8,G32A A41U,0.396
9,G32C G40U,0.086
10,G32C A71U,0.157
11,G32C A71G,0.238
12,G32C A71C,0.215
13,A31G A59C,0.173
14,G32U A36C,0.1
15,A31C A71C,0.202
16,A31C A71G,0.212
17,A31C U62C,0.0677
18,A31G A71U,0.396
19,G32U U67C,0.0935
20,U33A A45U,0.2
21,A31G G69U,0.258
22,A31G G69A,0.178
23,A30U U70A,0.0595
24,A30U U70C,0.123

row,Variant,self-cleavage
1,G32A U67G,0.0549
2,A31G U53G,0.495
3,A30U G57C,0.0918
4,G32A U53A,0.0993
5,A31G G56C,0.164
6,A31G G56U,0.106
7,A30U G54U,0.165
8,A30U G54A,0.137
9,A30U A44U,0.16
10,A31G G54C,0.276
11,A30U G56A,0.127
12,A30U G56U,0.149
13,A31G A39U,0.105
14,A31G A39C,0.253
15,U33A G42U,0.181
16,U33A G42A,0.168
17,A31U A43C,0.169
18,U33A G68C,0.138
19,U33A G68A,0.161
20,G32U A64C,0.258
21,G32U A64G,0.162
22,G32U A64U,0.126
